Measurements reported in paper PMC10710050, “HCMV-secreted glycoprotein gpUL4 inhibits TRAIL-mediated apoptosis and NK cell activation” (Proceedings of the National Academy of Sciences of the …, 2023).

Biological target: T1, TRAIL (Recombinant Human TRAIL, BioLegend) (human, UniProt P50591 39-281)
T1 construct: TRAIL (TNFSF10), human, recombinant soluble protein from BioLegend; The catalogue number is printed for the ELISA; SPR names BioLegend only; also called TNFSF10; soluble TRAIL; source: bought: BioLegend (cat.no 752902)
T1 sequence (P50591 39-281): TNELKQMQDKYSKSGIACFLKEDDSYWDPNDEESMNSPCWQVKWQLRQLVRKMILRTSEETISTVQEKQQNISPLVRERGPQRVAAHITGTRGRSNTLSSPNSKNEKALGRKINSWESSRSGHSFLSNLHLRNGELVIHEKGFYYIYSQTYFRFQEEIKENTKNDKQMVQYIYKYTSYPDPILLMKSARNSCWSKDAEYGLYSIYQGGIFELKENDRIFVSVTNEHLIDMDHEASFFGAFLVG
Assay: SPR; Biacore T100; gpUL4-V5 amine-coupled to a CM5 chip (5000RU), control surface soluble UL141 subtracted; TRAIL or TNFα flowed over (100 nM; kinetics from 3.125, 6.25, 12.5, 25 and 50 nM TRAIL, 1:1 binding fit); 10 mM HEPES, 150 mM NaCl, 0.005% TWEEN-20, pH 7.4
Conditions: both partners purified

B1: gpUL4-V5 (HCMV strain Merlin UL4 gene product with C-terminal V5/avitag/6his epitope tag) (natural protein)
chain: FCIFVSCSISTTTAPVEWKSPDRQIPMNITCANYSGTVNGNVTFRGLQNKTEDFLHWLLGWGHKSICSFFPKLQGNKEQHYMYGITNLTYNCTYDRLTLLNLTTENSGKYYFKREDVNSTFYYSCYNLTVT
modifications: N-linked and O-linked glycosylation on the secreted form (eight consensus N-linked sites; positions not given)
notes: the secreted form from the supernatant was used; Secreted glycoprotein; The tag is V5/avitag/6his in this order at the C-terminus; also called UL4 protein; not shown: V5, C-terminal, kept
  Kd: 0.234 nM
  koff: 0.0002 s⁻¹
  kon: 867000 M⁻¹ s⁻¹
